The target of experiment [1] is T1, human PTK7, full length, on the cell surface (human, UniProt Q13308 31-1070).
T1 sequence: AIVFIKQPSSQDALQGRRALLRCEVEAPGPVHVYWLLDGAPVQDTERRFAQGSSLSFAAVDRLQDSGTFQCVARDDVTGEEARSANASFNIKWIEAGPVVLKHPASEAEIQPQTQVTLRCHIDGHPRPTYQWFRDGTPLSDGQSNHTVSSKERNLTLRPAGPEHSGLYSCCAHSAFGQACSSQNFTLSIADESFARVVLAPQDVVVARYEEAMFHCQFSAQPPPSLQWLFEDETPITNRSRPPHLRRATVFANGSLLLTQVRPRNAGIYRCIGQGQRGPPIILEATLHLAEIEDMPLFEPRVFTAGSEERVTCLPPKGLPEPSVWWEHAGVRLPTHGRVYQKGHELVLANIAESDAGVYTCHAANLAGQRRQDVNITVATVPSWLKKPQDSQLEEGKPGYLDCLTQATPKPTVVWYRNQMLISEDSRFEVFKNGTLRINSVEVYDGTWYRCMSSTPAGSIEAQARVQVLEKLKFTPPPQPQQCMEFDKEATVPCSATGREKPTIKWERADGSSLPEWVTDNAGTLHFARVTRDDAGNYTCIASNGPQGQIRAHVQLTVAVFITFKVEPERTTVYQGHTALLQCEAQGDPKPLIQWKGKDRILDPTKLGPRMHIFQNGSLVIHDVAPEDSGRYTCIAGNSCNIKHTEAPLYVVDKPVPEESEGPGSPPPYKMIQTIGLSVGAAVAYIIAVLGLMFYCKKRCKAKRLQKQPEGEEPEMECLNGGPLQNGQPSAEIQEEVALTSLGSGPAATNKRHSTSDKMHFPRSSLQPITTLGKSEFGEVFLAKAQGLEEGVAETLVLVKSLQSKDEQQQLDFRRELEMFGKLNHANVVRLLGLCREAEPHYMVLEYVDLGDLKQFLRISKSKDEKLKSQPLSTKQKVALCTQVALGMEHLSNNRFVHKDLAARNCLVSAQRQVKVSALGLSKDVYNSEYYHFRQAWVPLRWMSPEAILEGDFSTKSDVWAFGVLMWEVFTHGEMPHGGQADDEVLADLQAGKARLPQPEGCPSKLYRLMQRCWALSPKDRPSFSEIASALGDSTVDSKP
The experiment is described as follows: cell-based or functional assay.

In experiment [2] the target is T1, human PTK7, full length, on the cell …. The experiment is described as follows: flow cytometry (MFI) on Wilms' tumor cell line G-401. As for the experimental part:
The nephroblastoma Wilms' tumor cell line G-401 (ATCC Acc No. CRL-1441) was tested for binding of the HuMAb anti-PTK7 human monoclonal antibodies 12C6 and 7C8 at different concentrations. Binding of the anti-PTK7 human monoclonal antibodies was assessed by incubating 1×10⁵ cells with antibody at a starting concentration of 30 μg/ml and serially diluting the antibody at a 1:10 dilution. The cells were washed and binding was detected with a PE-labeled anti-human IgG Ab. Flow cytometric analyses were performed using a FACScan flow cytometry (Becton Dickinson, San Jose, Calif.). The anti-PTK7 monoclonal antibodies 12C6 and 7C8 bound to the nephroblastoma Wilms' tumor cell line in a concentration dependent manner, as measured by the mean fluorescent intensity (MFI) of staining. The EC₅₀ values for the anti-PTK7 monoclonal antibodies 12C6 and 7C8 was 4.0 nM and 3.4 nM, respectively.

The target is the same in experiment [3]. The experiment is described as follows: flow cytometry (MFI) on cancer cell lines that express cell surface PTK7, antibody at 10 ug/ml. How it is done: Anti-PTK7 antibodies were tested for binding to a variety of cancer cell lines by flow cytometry.
Binding of the 3G8, 12C6a, 4D5 and 12C6 anti-PTK7 human monoclonal antibodies to a panel of cancer cell lines was assessed by incubating cancer cell lines with anti-PTK7 human monoclonal antibodies at a concentration of 10 μg/ml. The cancer cell lines that were tested were A-431 (ATCC Acc No. CRL-1555), Wilms tumor cells G-401 (ATCC Acc No. CRL-1441), Saos-2 (ATCC Acc No. HTB-85), SKOV-3 (ATCC Acc No. HTB-77), PC3 (ATCC Acc No. CRL-1435), DMS 114 (ATCC Acc No. CRL-2066), ACHN (ATCC Ace No. CRL-1611), LNCaP (ATCC Acc No. CRL-1740), DU 145 (ATCC Acc No. HTB-81), LoVo (ATCC Acc No. CCL-229) and MIA PaCa-2 (ATCC Acc No. CRL-1420). An isotype control antibody was used as a negative control. The cells were washed and binding was detected with a FITC-labeled anti-human IgG Ab. Flow cytometric analyses were performed using a FACScan flow cytometry (Becton Dickinson, San Jose, Calif.). The anti-PTK7 monoclonal antibodies 3G8, 12C6a, 4D5 and 12C6 bound to the cancer cell lines A-431, Wilms tumor cells G-401, Saos-2, SKOV-3, PC3, DMS 114, ACHN, LNCaP, DU 145, LoVo and MIA PaCa-2, as measured by the mean fluorescent intensity (MFI) of staining.
On the technique in general: A flow cytometer gives signals particle by particle.

Experiment [4] concerns the target T2, recombinant extracellular domain of PTK7 (human, UniProt Q13308 31-704).
T2 construct: also called PTK7 extracellular domain
T2 sequence: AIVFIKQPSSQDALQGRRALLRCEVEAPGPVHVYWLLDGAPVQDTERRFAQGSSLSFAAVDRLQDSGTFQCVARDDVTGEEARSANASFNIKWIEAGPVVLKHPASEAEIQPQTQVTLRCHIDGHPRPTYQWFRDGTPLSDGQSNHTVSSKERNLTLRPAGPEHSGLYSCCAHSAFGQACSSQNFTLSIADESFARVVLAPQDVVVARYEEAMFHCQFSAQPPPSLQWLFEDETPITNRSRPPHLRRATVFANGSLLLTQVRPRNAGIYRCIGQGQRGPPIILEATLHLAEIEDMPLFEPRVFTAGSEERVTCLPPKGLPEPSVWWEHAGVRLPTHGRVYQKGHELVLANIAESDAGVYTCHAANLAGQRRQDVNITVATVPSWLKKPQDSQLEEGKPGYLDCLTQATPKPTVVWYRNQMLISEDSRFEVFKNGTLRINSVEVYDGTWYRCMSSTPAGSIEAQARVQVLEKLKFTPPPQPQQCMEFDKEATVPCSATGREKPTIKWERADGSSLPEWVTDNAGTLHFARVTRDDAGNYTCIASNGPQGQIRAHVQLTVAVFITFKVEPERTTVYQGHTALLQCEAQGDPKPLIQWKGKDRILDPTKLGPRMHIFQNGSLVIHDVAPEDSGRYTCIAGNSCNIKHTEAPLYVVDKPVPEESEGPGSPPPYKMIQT
The experiment is described as follows: ELISA (legend of FIG. 15; members named in paragraph 547). How it is done: The binding of anti-PTK7 antibodies was also assessed by standard ELISA to examine the specificity of binding for PTK7.
Recombinant extracellular domain of PTK7 was tested for binding against the anti-PTK7 human monoclonal antibodies 3G8, 4D5, 12C6 and 12C6a at different concentrations. Standard ELISA procedures were performed. The anti-PTK7 human monoclonal antibodies were added at a starting concentration of 10 μg/ml and serially diluted at a 1:2 dilution. Goat-anti-human IgG (kappa chain-specific) polyclonal antibody conjugated with horseradish peroxidase (HRP) was used as secondary antibody. Each of the anti-PTK7 human monoclonal antibodies 3G8, 4D5, 12C6 and 12C6a bound to PTK7.
(In an ELISA, binding on a coated surface is turned into a signal by an enzyme label.)

B1: anti-PTK7 human monoclonal antibody 12C6 (antibody, V domains shown)
VH: EVQLVQSGGGLVHPGGSLRLSCAGSGFTFSTYLMYWVRQAPGKTLEWVSAIGSGGDTYYADSVKGRFTISRDNAKNSLYLQMNSLRAEDMAVYYCARGLGYWGQGTLVTVSS
VL: not shown
notes: Human IgG kappa from a hybridoma
Turning to B1, in experiment [1], the “EC50 of the decrease in 3H-thymidine incorporation, Hum-Zap internalization assay, A-431 cells” value was determined as 0.2 nM; the “EC50 of the decrease in 3H-thymidine incorporation, Hum-Zap internalization assay, PC3 tumor cells” value was found to be 0.3 nM; the “EC50 of the decrease in 3H-thymidine incorporation, Hum-Zap internalization assay, Wilms' tumor cells G-401” value (shortened to “EC50 of the decrease … Wilms' tumor cells G-401”) was 0.2 nM. Moreover, a half-maximal effect in experiment [2] (EC50) was put at 4 nM.

B2: anti-PTK7 human monoclonal antibody 4D5 (antibody, V domains shown)
VH: QVQLVESGGGVVQPGRSLRLSCAASGFTFSSYAFHWVRQAPGKGLEWVAVISYDGSIKYYADSVKGRFTISRDNSKNTLYLQMNSLRAEDTAVYYCARTYYFDYWGQGTLVTVSS
VL: EIVLTQSPDFQSVTPKEKVTITCRASQSIGSSLHWYQQKPDQSPKLLIKYASQSFSGVPSRFSGSGSGTDFTLTINSLEAEDAAAYYCHQSSSLPITFGQGTRLEIK
Consider B2, for which the “EC50 of the decrease … Wilms' tumor cells G-401” value in experiment [1] turned out to be 0.3 nM.

B3: anti-PTK7 human monoclonal antibody 7C8 (antibody, V domains shown)
VH: QVQLVESGGGVVQPGRSLRLSCAASGFTFSSYGMHWVRQAPGKGLEWVAVIWDDGSNKYYVDSVKGRFTISRDNSKNTLYLQMNSLRAEDTAVYYCARDDYYGSGSFNSYYGTDVWGQGTTVTVSS
VL: EIVLTQSPATLSLSPGERATLSCRASQSVSIYLAWYQQKPGQAPRLLIYDASNRATGIPARFSGSGSGTDFTLTISSLEPEDFAVYYCQQRSNWPPFTFGPGTKVDIK
notes: as for B1
On to B3, for which, in experiment [1], the “EC50 of the decrease in 3H-thymidine incorporation, Hum-Zap internalization assay, A-431 cells” value worked out at 0.2 nM; the “EC50 of the decrease in 3H-thymidine incorporation, Hum-Zap internalization assay, PC3 tumor cells” value came out at 0.3 nM; the “EC50 of the decrease … Wilms' tumor cells G-401” value is 0.2 nM. This molecule also gave a concentration for a half-maximal effect (EC50) in experiment [2] of 3.4 nM.

B4: anti-PTK7 human monoclonal antibody 3G8 (antibody, V domains shown)
VH: QVQLVESGGGVVQPGRSLRLSCAASGFIFSNYAMHWVRQAPGKGLEWVAVISYDGNNKYYADSVKGRFTISRDNSKNTLYLQMNSLRAEDTAVYYCAREVWSIDNWGQGTLVTVSS
VL: DIQMTQSPSSLSASVGDRVTITCRASQGISSWLAWYQQKPEKAPKSLIYAASSLQSGVPSRFSGSGSGTDFTLTISSLQPEDFATYYCQQYNSYPRTFGQGTKVEIK
For the molecule B4, the “EC50 of the decrease … Wilms' tumor cells G-401” value in experiment [1] was 0.6 nM.

B5: anti-PTK7 human monoclonal antibody 12C6a (antibody, V domains shown)
VH: EVQLVQSGGGLVHPGGSLRLSCAGSGFTFSTYLMYWVRQAPGKTLEWVSAIGSGGDTYYADSVKGRFTISRDNAKNSLYLQMNSLRAEDMAVYYCARGLGYWGQGTLVTVSS
VL: DIQMTQSPSSLSASVGDRVTITCRASQGISSWLAWYQQKPEKAPKSLIYAASSLQSGVPSRFSGSGSGTDFTLTISSLQPEDFATYYCQQYNSYPYTFGQGTKLEIK
notes: Same heavy chain variable region as 12C6, different light chain; Human IgG kappa from a hybridoma
For B5, the binding result in experiment [3] and in experiment [4] was “binds” throughout.

Usually EC50 stands for the concentration giving half of the maximal effect. The low end stands for a more potent agent, the high end for a less potent agent.

The values are drawn from US20120027782A1 (Bristol-Myers Squibb, published 2012).
